In the supplement of paper PMC5998384:

Tests used:
HeLa Kyoto [1] = test: thermal stability score vs G1/S (z-score of summed log2 fold changes over temperatures); higher = more thermally stable than in G1/S
HeLa Kyoto [2] = test: solubility in G1/S (NP-40 vs SDS abundance) (log2 ratio); higher = more soluble; conditions: cell cycle stage: G1/S
HeLa Kyoto [3] = test: melting temperature (median over replicates), in situ; higher = more thermally stable
HeLa Kyoto [4] = test: solubility change mitosis vs G1/S (difference of NP-40 vs SDS log2 ratios) (log2 ratio difference); higher = more soluble in mitosis
[5] = cell cycle stage: early G1 (4.5 h after nocodazole release)
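Throughout, for melting temperature (median over replicates), in situ: HeLa Kyoto cells synchronized by double thymidine or nocodazole block, proteins quantified by TMT10plex mass spectrometry, three independent biological replicates.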
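Throughout, for solubility change mitosis vs G1/S (difference of NP-40 vs SDS log2 ratios): synchronized HeLa Kyoto cells (double thymidine block for G1/S, nocodazole release for mitosis), protein amounts in NP-40 versus SDS lysates quantified by mass spectrometry, three biological replicates.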
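Throughout, for solubility in G1/S (NP-40 vs SDS abundance): HeLa Kyoto cells arrested at G1/S by double thymidine block, proteins quantified by TMT10plex mass spectrometry in mild NP-40 versus SDS extracts, three biological replicates.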
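Throughout, for thermal stability score vs G1/S (z-score of summed log2 fold changes over temperatures): synchronized HeLa Kyoto cells, proteins quantified by TMT10plex mass spectrometry, three biological replicates, mitosis taken 0.5 h after nocodazole release, G1/S directly after double thymidine block.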

Sequence of ATR (chain, as listed by the source): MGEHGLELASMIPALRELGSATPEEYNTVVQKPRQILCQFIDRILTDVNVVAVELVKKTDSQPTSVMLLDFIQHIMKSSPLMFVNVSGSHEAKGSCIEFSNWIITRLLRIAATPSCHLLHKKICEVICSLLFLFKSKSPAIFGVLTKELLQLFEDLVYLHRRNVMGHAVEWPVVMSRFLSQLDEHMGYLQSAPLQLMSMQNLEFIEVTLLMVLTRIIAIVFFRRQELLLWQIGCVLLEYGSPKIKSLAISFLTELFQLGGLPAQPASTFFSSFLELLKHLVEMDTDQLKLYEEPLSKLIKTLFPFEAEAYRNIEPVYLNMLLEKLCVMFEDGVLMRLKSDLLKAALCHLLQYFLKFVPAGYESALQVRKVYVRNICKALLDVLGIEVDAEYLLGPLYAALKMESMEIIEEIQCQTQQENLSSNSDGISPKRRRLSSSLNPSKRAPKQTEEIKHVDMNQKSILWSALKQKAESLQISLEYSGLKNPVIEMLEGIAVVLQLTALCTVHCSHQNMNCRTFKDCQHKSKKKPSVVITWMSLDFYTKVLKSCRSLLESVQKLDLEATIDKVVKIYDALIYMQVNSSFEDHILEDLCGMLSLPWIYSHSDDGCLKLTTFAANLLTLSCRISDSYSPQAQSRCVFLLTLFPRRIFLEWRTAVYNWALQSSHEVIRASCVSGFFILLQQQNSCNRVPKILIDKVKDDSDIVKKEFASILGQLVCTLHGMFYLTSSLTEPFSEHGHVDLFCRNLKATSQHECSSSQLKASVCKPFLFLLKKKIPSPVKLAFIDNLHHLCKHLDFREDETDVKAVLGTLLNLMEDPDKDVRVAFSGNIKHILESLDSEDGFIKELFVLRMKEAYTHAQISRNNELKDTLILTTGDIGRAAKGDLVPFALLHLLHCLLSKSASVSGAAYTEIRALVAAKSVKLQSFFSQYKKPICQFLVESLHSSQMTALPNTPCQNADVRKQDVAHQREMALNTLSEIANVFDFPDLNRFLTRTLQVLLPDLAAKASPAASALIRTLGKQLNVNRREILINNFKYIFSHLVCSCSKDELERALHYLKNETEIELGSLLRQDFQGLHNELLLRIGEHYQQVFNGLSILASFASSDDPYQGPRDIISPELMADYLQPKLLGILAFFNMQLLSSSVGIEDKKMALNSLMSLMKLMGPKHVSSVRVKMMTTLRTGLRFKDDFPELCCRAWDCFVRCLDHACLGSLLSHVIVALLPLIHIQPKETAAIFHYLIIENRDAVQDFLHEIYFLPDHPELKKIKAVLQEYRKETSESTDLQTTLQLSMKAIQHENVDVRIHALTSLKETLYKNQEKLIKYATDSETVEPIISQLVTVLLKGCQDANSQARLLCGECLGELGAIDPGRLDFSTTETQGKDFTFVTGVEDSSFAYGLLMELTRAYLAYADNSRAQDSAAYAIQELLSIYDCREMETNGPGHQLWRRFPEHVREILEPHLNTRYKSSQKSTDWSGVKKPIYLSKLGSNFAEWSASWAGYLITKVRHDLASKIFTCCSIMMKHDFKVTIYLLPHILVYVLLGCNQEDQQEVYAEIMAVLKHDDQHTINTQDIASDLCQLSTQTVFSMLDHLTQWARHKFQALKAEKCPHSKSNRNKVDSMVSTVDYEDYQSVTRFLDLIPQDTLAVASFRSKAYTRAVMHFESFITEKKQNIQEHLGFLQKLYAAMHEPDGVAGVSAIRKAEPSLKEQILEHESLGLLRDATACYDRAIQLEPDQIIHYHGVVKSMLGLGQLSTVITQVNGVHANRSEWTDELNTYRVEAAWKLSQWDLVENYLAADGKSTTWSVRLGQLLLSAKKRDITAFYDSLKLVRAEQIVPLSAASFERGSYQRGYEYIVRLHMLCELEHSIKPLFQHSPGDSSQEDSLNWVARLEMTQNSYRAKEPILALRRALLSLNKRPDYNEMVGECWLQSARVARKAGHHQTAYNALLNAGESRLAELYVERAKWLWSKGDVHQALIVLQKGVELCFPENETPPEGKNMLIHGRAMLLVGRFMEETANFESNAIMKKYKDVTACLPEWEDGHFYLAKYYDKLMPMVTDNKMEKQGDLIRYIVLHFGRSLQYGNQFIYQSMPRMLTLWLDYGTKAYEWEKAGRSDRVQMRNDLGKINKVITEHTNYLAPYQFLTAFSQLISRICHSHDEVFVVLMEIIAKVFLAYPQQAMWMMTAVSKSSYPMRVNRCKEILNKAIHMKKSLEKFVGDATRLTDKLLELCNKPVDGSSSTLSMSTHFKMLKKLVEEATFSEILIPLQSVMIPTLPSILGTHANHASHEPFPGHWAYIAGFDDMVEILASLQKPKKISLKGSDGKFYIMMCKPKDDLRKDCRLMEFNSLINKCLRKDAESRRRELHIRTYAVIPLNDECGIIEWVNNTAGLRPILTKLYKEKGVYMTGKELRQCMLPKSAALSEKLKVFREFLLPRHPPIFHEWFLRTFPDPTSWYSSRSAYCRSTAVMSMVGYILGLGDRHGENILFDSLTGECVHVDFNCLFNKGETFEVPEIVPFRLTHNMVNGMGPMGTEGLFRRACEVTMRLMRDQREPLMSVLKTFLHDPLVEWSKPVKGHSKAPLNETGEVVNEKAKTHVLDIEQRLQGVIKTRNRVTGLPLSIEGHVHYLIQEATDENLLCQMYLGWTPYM
Sequence of AGO2 (chain, as listed by the source): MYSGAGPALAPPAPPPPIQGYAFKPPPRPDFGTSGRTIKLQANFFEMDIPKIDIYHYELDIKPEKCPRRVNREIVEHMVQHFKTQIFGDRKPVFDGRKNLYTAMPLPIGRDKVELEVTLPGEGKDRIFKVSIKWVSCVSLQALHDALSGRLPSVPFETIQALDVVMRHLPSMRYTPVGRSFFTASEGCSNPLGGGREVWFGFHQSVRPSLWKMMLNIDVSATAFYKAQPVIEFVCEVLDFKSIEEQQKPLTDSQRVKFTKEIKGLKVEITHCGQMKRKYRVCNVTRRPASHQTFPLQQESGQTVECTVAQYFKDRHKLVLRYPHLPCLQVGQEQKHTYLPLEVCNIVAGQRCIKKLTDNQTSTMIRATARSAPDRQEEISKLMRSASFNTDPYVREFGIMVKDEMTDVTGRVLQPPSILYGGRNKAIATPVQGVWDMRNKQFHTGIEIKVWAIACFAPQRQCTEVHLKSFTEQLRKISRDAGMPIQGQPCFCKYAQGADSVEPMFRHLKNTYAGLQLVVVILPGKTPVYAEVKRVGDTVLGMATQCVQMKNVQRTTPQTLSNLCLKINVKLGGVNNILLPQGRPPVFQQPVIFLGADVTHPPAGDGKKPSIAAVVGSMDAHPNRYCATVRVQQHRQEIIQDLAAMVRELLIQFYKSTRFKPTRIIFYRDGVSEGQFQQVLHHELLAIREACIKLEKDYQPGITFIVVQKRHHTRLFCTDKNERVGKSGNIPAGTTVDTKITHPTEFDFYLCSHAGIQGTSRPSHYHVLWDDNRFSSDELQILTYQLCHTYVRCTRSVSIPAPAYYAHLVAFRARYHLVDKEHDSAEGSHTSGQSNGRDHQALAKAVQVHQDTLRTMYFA
Sequence of C1GALT1 (chain, as listed by the source): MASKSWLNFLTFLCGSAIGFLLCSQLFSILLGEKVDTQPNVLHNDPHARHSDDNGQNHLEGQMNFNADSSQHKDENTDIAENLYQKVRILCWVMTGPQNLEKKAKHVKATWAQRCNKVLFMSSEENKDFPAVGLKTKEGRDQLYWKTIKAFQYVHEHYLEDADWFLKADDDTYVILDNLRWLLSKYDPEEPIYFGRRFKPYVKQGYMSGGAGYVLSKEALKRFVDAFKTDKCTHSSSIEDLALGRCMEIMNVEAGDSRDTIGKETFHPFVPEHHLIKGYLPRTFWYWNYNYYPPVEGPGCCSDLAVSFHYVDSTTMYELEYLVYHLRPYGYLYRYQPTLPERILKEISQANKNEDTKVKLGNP
Sequence of BRD2 (chain, as listed by the source): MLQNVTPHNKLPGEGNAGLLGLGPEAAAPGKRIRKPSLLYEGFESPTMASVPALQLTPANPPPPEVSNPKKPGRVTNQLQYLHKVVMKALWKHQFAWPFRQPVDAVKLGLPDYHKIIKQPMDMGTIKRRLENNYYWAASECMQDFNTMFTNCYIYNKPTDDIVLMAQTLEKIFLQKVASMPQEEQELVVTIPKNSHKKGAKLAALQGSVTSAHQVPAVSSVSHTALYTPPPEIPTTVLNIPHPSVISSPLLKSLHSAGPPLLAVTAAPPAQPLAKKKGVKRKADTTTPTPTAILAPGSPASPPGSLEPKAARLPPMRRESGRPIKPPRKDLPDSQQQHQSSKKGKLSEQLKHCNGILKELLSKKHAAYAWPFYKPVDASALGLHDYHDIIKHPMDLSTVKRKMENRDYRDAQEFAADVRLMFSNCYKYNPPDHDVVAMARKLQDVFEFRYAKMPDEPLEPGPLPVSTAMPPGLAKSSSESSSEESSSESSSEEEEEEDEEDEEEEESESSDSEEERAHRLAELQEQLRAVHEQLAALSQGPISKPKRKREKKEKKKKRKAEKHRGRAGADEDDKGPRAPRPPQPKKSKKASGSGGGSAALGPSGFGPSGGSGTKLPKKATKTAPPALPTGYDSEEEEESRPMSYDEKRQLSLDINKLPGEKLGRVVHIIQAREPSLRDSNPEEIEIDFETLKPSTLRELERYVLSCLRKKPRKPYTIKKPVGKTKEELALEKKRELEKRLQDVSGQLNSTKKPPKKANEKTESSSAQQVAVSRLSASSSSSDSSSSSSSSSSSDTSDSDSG

Substance	thermal stability score (HeLa Kyoto [1]; [5])	thermal stability score (HeLa Kyoto [1]; cell cycle stage: mitosis)	solubility in G1/S (log2) (HeLa Kyoto [2])	melting temperature (HeLa Kyoto [3]; cell cycle stage: G1/S) [°C]	melting temperature (HeLa Kyoto [3]; cell cycle stage: mitosis) [°C]	solubility change mitosis (log2) (HeLa Kyoto [4])
ABCC1	-0.781	-0.316	0.0337	54.5	53.7	-0.0751
AGO2	2.34	-0.539	-0.133	51.5	52.6	0.0495
AKAP13	-0.167	1.43	-0.0395	50.6	49.6	-0.118
ALDH6A1	0.0292	0.822	0.179	49.3	49.9	-0.072
ANKHD1	0.478	1.9	-0.0494	47.9	49.4	-0.0108
ASAP1	0.472	0.143	0.0639	50.5	51.1	-0.0861
ATP5H	-5.39	-6.92	0.0908	54.9	52.9	0.46
ATP7A	-0.475	-0.996	0.00927	51.7	51.1	-0.147
ATR	-0.0687	0.0624	-0.368	50.7	50.5	-0.097
BCOR	0.368	1.08	-0.157	47.6	50.1	0.38
BRD2	0.901	2.29	-0.0635	47.9	49.1	0.202
BTAF1	0.553	1.71	-0.142	50	50.1	-0.118
C1GALT1	-1.2	0.982	0.222	53.7	53.6	-0.0544
C20ORF27	-0.424	-1.13	0.205	53.3	54.8	-0.035
MTTKDYPSLWGFGTTKTFKIPIEHLDFKYIEKCSDVKHLEKILCVLRSGEEGYYPELTEFCEKHLQALAPESRALRKDKPAATAASFTAEEWEKIDGDIKSWVSEIKKEEDKMHFHETETFPAMKDNLPPVRGSNSCLHVGKEKYSKRPTKKKTPRDYAEWDKFDVEKECLKIDEDYKEKTVIDKSHLSKIETRIDTAGLTEKEKDFLATREKEKGNEAFNSGDYEEAVMYYTRSISALPTVVAYNNRAQAEIKLQNWNSAFQDCEKVLELEPGNVKALLRRATTYKHQNKLREATEDLSKVLDVEPDNDLAKKTLSEVERDLKNSEAASETQTKGKRMVIQEIENSEDEEGKSGRKHEDGGGDKKPAEPAGAARAAQPCVMGNIQKKLTGKAEGGKRPARGAPQRGQTPEAGADKRSPRRASAAAAAGGGATGHPGGGQGAENPAGLKSQGNELFRSGQFAEAAGKYSAAIALLEPAGSEIADDLSILYSNRAACYLKEGNCSGCIQDCNRALELHPFSMKPLLRRAMAYETLEQYGKAYVDYKTVLQIDCGLQLANDSVNRLSRILMELDGPNWREKLSPIPAVPASVPLQAWHPAKEMISKQAGDSSSHRQQGITDEKTFKALKEEGNQCVNDKNYKDALSKYSECLKINNKECAIYTNRALCYLKLCQFEEAKQDCDQALQLADGNVKAFYRRALAHKGLKNYQKSLIDLNKVILLDPSIIEAKMELEEVTRLLNLKDKTAPFNKEKERRKIEIQEVNEGKEEPGRPAGEVSMGCLASEKGGKSSRSPEDPEKLPIAKPNNAYEFGQIINALSTRKDKEACAHLLAITAPKDLPMFLSNKLEGDTFLLLIQSLKNNLIEKDPSLVYQHLLYLSKAERFKMMLTLISKGQKELIEQLFEDLSDTPNNHFTLEDIQALKRQYEL [SPAG1]			0.51	49.2	48.5	-0.0757
MVGEMETKEKPKPTPDYLMQLMNDKKLMSSLPNFCGIFNHLERLLDEEISRVRKDMYNDTLNGSTEKRSAELPDAVGPIVQLQEKLYVPVKEYPDFNFVGRILGPRGLTAKQLEAETGCKIMVRGKGSMRDKKKEEQNRGKPNWEHLNEDLHVLITVEDAQNRAEIKLKRAVEEVKKLLVPAAEGEDSLKKMQLMELAILNGTYRDANIKSPALAFSLAATAQAAPRIITGPAPVLPPAALRTPTPAGPTIMPLIRQIQTAVMPNGTPHPTAAIVPPGPEAGLIYTPYEYPYTLAPATSILEYPIEPSGVLGAVATKVRRHDMRVHPYQRIVTADRAATGN [QKI]			0.613	50.2	49.8	-0.0775
MVNSSRVQPQQPGDAKRPPAPRAPDPGRLMAGCAAVGASLAAPGGLCEQRGLEIEMQRIRQAAARDPPAGAAASPSPPLSSCSRQAWSRDNPGFEAEEEEEEVEGEEGGMVVEMDVEWRPGSRRSAASSAVSSVGARSRGLGGYHGAGHPSGRRRRREDQGPPCPSPVGGGDPLHRHLPLEGQPPRVAWAERLVRGLRGLWGTRLMEESSTNREKYLKSVLRELVTYLLFLIVLCILTYGMMSSNVYYYTRMMSQLFLDTPVSKTEKTNFKTLSSMEDFWKFTEGSLLDGLYWKMQPSNQTEADNRSFIFYENLLLGVPRIRQLRVRNGSCSIPQDLRDEIKECYDVYSVSSEDRAPFGPRNGTAWIYTSEKDLNGSSHWGIIATYSGAGYYLDLSRTREETAAQVASLKKNVWLDRGTRATFIDFSVYNANINLFCVVRLLVEFPATGGVIPSWQFQPLKLIRYVTTFDFFLAACEIIFCFFIFYYVVEEILEIRIHKLHYFRSFWNCLDVVIVVLSVVAIGINIYRTSNVEVLLQFLEDQNTFPNFEHLAYWQIQFNNIAAVTVFFVWIKLFKFINFNRTMSQLSTTMSRCAKDLFGFAIMFFIIFLAYAQLAYLVFGTQVDDFSTFQECIFTQFRIILGDINFAEIEEANRVLGPIYFTTFVFFMFFILLNMFLAIINDTYSEVKSDLAQQKAEMELSDLIRKGYHKALVKLKLKKNTVDDISESLRQGGGKLNFDELRQDLKGKGHTDAEIEAIFTKYDQDGDQELTEHEHQQMRDDLEKEREDLDLDHSSLPRPMSSRSFPRSLDDSEEDDDEDSGHSSRRRGSISSGVSYEEFQVLVRRVDRMEHSIGSIVSKIDAVIVKLEIMERAKLKRREVLGRLLDGVAEDERLGRDSEIHREQMERLVREELERWESDDAASQISHGLGTPVGLNGQPRPRSSRPSSSQSTEGMEGAGGNGSSNVHV [PKD2]			0.00411	52.1		-0.0995
MVPGSEGPARAGSVVADVVFVIEGTANLGPYFEGLRKHYLLPAIEYFNGGPPAETDFGGDYGGTQYSLVVFNTVDCAPESYVQCHAPTSSAYEFVTWLDGIKFMGGGGESCSLIAEGLSTALQLFDDFKKMREQIGQTHRVCLLICNSPPYLLPAVESTTYSGCTTENLVQQIGERGIHFSIVSPRKLPALRLLFEKAAPPALLEPLQPPTDVSQDPRHMVLVRGLVLPVGGGSAPGPLQSKQPVPLPPAAPSGATLSAAPQQPLPPVPPQYQVPGNLSAAQVAAQNAVEAAKNQKAGLGPRFSPITPLQQAAPGVGPPFSQAPAPQLPPGPPGAPKPPPASQPSLVSTVAPGSGLAPTAQPGAPSMAGTVAPGGVSGPSPAQLGAPALGGQQSVSNKLLAWSGVLEWQEKPKPASVDANTKLTRSLPCQVYVNHGENLKTEQWPQKLIMQLIPQQLLTTLGPLFRNSRMVQFHFTNKDLESLKGLYRIMGNGFAGCVHFPHTAPCEVRVLMLLYSSKKKIFMGLIPYDQSGFVNGIRQVITNHKQVQQQKLEQQQRGMGGQQAPPGLGPILEDQARPSQNLLQLRPPQPQPQGTVGASGATGQPQPQGTAQPPPGAPQGPPGAASGPPPPGPILRPQNPGANPQLRSLLLNPPPPQTGVPPPQASLHHLQPPGAPALLPPPHQGLGQPQLGPPLLHPPPAQSWPAQLPPRAPLPGQMLLSGGPRGPVPQPGLQPSVMEDDILMDLI [MED25]			0.612	52.1	50.9	-0.172
MVTEQEVDAIGQTLVDPKQPLQARFRALFTLRGLGGPGAIAWISQAFDDDSALLKHELAYCLGQMQDARAIPMLVDVLQDTRQEPMVRHEAGEALGAIGDPEVLEILKQYSSDPVIEVAETCQLAVRRLEWLQQHGGEPAAGPYLSVDPAPPAEERDVGRLREALLDESRPLFERYRAMFALRNAGGEEAALALAEGLHCGSALFRHEVGYVLGQLQHEAAVPQLAAALARCTENPMVRHECAEALGAIARPACLAALQAHADDPERVVRESCEVALDMYEHETGRAFQYADGLEQLRGAPS [DOHH]			0.137	50.3	50.6	0.308
MWVCSTLWRVRTPARQWRGLLPASGCHGPAASSYSASAEPARVRALVYGHHGDPAKVVELKNLELAAVRGSDVRVKMLAAPINPSDINMIQGNYGFLPELPAVGGNEGVAQVVAVGSNVTGLKPGDWVIPANAGLGTWRTEAVFSEEALIQVPSDIPLQSAATLGVNPCTAYRMLMDFEQLQPGDSVIQNASNSGVGQAVIQIAAALGLRTINVVRDRPDIQKLSDRLKSLGAEHVITEEELRRPEMKNFFKDMPQPRLALNCVGGKSSTELLRQLARGGTMVTYGGMAKQPVVASVSLLIFKDLKLRGFWLSQWKKDHSPDQFKELILTLCDLIRRGQLTAPACSQVPLQDYQSALEASMKPFISSKQILTM [MECR]			0.282	55	54.1	-0.0123
PTPRS			0.148	51.6		-0.268
RCOR3			0.375	49.1	50	0.101
USP32			-0.319	50.4	50.3	-0.0623
ZFHX3			-0.242	48.7	49.3	0.302
